# The supplement of paper PMC10065799, “High-throughput profiling of sequence recognition by tyrosine kinases and SH2 domains using bacterial peptide display” (eLife, 2023)
# What was measured:
# [1] = biological target: FGFR1 (UniProt P11362); assay: phosphorylation enrichment, bacterial display (enrichment ratio); higher = better substrate or ligand; peptides without Tyr show the background
# [2] = system: Fer (mouse); assay: as above
# [3] = biological target: Fyn (UniProt P06241); assay: as above
# [4] = system: AncSZ; assay: as above
# [5] = system: c-Src; assay: as above
# [6] = biological target: EPHB1 (UniProt P54762); assay: as above
# [7] = biological target: MERTK (UniProt Q12866); assay: as above
# [8] = biological target: Jak2 (UniProt O60674); assay: as above
# [9] = biological target: Hck (UniProt P08631); assay: as above
# [10] = system: c-Abl (mouse); assay: as above
# [11] = biological target: Fes (UniProt P07332); assay: as above
# [12] = biological target: EPHB2 (UniProt P29323); assay: as above
# [13] = biological target: FGFR3 (UniProt P22607); assay: as above
# [14] = biological target: Grb2 SH2 (UniProt P62993); assay: SH2 binding enrichment of the phosphorylated peptide, bacterial display (enrichment ratio); higher = better substrate or ligand; peptides without Tyr show the background
# [15] = biological target: c-Src SH2; assay: as above
# [16] = biological target: SHP2-C SH2; assay: as above
# 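For SH2 binding enrichment of the phosphorylated peptide, bacterial display in this document: peptide library displayed on the E. coli surface as eCPX fusions, selected cells deep-sequenced, score is each peptide's frequency after selection divided by its frequency in the input.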
# 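For phosphorylation enrichment, bacterial display in this document: 11-residue human phosphosite peptides and single-mutation variants displayed on the E. coli surface, counted by deep sequencing, each peptide's frequency after selection divided by its frequency in the unselected input library; frequency after pTyr selection over input frequency; kinase dosed for 20-30% of maximal phosphorylation in three min.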
# Chain of Fyn (P06241 whole entry, looked up): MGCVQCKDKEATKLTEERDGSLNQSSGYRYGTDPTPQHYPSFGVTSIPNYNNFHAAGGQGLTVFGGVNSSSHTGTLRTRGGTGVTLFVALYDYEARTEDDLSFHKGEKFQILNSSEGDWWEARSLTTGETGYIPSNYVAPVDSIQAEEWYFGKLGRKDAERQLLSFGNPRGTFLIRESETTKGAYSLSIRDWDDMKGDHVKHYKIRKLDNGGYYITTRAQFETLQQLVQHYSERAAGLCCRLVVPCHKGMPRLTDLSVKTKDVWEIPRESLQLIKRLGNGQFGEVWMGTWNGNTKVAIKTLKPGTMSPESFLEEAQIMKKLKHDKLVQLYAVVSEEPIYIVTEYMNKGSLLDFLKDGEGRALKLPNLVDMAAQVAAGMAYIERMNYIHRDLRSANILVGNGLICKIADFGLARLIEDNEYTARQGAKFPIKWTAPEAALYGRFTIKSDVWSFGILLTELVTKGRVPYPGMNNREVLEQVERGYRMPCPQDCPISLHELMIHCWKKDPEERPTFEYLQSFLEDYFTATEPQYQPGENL
# Chain of FGFR1 (P11362 whole entry, looked up): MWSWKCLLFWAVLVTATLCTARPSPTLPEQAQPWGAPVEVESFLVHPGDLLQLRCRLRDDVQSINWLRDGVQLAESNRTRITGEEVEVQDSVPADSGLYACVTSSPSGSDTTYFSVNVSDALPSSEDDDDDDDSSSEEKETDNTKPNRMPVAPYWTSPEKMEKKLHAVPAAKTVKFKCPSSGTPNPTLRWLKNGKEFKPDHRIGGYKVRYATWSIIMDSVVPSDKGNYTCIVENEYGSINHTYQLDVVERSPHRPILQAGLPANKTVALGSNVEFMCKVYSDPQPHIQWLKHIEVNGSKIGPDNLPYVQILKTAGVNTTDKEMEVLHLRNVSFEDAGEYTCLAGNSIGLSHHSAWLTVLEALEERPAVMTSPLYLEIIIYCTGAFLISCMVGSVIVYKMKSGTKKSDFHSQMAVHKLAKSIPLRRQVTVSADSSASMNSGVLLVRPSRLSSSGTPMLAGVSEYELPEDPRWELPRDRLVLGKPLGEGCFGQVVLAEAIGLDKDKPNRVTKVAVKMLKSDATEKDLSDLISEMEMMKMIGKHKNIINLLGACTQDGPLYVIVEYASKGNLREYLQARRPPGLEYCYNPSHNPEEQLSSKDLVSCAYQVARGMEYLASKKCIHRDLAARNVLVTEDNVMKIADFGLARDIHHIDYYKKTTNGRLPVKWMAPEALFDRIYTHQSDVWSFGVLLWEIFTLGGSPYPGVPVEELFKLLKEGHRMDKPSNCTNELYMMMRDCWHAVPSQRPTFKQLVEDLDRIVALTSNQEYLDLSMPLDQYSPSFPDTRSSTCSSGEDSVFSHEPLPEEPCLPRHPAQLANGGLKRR
# Chain of EPHB1 (P54762 whole entry, looked up): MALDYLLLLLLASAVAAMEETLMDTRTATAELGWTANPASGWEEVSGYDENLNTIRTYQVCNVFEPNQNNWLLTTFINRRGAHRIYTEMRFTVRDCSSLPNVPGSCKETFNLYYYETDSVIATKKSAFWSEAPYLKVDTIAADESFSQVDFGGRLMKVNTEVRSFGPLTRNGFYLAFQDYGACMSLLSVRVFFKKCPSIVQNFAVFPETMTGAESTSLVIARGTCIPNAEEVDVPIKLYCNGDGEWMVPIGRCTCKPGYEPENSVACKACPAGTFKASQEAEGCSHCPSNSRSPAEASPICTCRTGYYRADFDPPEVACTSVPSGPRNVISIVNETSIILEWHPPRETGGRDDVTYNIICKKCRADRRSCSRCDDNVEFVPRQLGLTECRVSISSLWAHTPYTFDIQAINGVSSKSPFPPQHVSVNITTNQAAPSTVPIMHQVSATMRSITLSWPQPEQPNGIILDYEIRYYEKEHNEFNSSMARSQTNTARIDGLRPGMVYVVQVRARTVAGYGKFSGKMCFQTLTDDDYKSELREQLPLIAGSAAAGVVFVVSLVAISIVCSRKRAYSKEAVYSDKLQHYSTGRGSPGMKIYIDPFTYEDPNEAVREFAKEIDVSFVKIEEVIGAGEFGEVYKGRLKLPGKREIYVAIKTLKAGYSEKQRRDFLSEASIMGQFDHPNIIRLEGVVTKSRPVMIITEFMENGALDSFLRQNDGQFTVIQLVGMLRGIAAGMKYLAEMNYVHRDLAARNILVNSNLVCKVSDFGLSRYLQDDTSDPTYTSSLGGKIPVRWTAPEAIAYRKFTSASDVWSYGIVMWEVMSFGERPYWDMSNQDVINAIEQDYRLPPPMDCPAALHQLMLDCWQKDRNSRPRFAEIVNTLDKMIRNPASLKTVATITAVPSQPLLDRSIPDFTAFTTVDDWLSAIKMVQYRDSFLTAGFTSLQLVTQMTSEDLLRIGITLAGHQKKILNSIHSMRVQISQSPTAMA
# Chain of Fes (P07332 whole entry, looked up): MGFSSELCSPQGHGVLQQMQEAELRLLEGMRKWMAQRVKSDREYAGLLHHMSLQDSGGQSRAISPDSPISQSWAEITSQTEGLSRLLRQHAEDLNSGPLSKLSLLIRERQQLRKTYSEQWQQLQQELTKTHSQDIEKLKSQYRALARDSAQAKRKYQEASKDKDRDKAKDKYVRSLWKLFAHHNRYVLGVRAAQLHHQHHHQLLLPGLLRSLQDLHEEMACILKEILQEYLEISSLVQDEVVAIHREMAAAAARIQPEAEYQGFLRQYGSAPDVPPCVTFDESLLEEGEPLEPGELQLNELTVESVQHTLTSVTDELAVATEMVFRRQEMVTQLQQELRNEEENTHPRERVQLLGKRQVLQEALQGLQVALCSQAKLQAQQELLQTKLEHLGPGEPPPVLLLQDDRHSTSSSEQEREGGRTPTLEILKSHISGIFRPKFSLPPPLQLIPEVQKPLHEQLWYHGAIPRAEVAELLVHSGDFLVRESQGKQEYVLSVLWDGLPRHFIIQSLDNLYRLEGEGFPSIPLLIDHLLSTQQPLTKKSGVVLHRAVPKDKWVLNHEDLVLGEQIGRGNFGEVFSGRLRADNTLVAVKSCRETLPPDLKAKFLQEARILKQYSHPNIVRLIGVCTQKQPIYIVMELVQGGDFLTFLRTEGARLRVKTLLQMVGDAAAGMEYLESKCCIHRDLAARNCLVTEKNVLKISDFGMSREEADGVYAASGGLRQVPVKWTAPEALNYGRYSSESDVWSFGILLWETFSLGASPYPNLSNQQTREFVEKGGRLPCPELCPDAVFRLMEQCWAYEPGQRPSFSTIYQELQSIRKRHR
# Chain of FGFR3 (P22607 whole entry, looked up): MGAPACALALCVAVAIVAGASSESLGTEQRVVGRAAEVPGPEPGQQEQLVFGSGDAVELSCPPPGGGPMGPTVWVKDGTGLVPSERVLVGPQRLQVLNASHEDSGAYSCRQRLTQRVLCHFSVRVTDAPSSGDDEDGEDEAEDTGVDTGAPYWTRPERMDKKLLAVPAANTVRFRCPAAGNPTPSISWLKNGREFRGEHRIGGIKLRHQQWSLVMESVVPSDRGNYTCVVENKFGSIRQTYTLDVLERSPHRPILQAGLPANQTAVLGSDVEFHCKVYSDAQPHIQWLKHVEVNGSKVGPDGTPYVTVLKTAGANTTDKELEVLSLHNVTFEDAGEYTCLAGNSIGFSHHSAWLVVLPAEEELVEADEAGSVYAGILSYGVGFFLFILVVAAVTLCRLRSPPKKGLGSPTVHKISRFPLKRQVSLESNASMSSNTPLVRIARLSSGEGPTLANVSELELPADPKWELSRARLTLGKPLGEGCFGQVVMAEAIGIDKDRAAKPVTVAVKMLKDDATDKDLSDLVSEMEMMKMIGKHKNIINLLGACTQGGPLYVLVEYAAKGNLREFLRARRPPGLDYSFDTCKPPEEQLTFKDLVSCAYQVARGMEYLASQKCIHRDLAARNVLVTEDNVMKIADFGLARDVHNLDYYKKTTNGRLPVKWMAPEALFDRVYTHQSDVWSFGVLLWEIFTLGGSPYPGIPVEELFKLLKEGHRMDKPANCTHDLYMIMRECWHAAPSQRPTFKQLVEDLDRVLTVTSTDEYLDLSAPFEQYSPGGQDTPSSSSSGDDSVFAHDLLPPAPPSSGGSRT
# Chain of Jak2 (O60674 whole entry, looked up): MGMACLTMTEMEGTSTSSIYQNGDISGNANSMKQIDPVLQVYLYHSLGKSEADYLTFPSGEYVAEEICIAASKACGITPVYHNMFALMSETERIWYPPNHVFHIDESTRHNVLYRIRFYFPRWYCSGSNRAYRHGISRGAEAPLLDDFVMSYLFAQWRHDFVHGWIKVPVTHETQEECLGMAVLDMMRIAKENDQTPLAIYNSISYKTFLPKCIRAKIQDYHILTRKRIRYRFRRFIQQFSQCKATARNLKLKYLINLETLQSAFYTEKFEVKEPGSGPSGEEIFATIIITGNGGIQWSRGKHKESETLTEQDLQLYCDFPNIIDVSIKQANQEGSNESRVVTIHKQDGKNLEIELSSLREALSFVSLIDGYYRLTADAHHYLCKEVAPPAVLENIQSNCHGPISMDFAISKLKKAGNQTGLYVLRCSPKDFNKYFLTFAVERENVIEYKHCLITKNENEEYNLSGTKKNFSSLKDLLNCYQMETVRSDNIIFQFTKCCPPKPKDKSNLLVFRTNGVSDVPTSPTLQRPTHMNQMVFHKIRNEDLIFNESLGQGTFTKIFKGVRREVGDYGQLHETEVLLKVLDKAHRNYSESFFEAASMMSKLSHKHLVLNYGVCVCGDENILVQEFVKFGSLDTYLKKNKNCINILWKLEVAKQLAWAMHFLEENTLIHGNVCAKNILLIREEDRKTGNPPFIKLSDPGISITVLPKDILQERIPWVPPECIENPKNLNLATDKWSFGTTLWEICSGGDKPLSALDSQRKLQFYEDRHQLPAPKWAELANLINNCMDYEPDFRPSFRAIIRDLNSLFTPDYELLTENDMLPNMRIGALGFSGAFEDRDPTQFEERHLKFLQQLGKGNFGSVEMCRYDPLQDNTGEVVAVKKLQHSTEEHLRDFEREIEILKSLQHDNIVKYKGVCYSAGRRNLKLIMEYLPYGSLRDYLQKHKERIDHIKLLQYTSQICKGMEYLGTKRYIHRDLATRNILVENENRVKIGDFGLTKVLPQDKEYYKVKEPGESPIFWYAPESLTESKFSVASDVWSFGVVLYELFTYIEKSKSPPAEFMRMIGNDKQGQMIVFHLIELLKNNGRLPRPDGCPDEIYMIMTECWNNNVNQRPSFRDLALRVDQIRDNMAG
Sequence,phosphorylation enrichment [1],phosphorylation enrichment [2],phosphorylation enrichment [3],phosphorylation enrichment [4],phosphorylation enrichment [5],phosphorylation enrichment [6],phosphorylation enrichment [7],phosphorylation enrichment [8],phosphorylation enrichment [9],phosphorylation enrichment [10],phosphorylation enrichment [11],phosphorylation enrichment [12],phosphorylation enrichment [13],SH2 binding enrichment [14],SH2 binding enrichment [15],SH2 binding enrichment [16]
GHEFIYVDPMQ [PDGFRA_Y574_YF],10.8,1.91,2.2,1.85,2.6,5.23,2.36,0.818,2.96,6.67,0.986,6.63,7.52,0.821,0.563,0.661
GHLFAYNWISI [BEST1_Y227_D228N_YF],1.34,4.77,0.488,0.962,0.392,0.51,0.548,0.978,0.444,0.58,1.06,0.469,1.21,0.993,0.916,1.13
GHLYACDWISI [BEST1_Y227_Y227C],0.902,0.677,1.06,1.21,1.34,1.3,4.89,1.18,0.846,1.05,1.43,0.929,1.06,0.799,0.771,0.676
GHRPVYSEDEQ [CHST6_Y362_Y358H],0.495,0.501,0.474,1.05,0.48,0.429,0.437,0.894,0.564,0.757,1.13,0.523,0.707,1.1,0.641,0.736
GIFSGYDDAWD [POLR1C_Y36_N32I_YF],0.531,0.477,0.551,1.1,0.514,0.51,0.481,1.07,0.547,0.746,1.14,0.651,0.7,0.968,4.13,0.695
GINDDYGQLKN [NBN_Y679],0.499,0.474,0.528,0.841,0.613,0.364,0.296,0.829,0.874,0.499,1.1,0.514,0.61,0.92,0.494,1.42
GIPIQYPIISE [NOG_Y222_W217G],0.627,0.467,0.541,0.868,0.409,0.55,0.447,1.02,0.446,0.888,1.11,0.587,0.685,0.847,0.498,0.457
GISDEYHMIRH [GCDH_Y398_V400M],7.6,0.402,0.58,1.07,0.735,0.446,0.349,0.575,0.891,0.491,0.714,0.522,4.43,0.931,0.781,0.587
GISDEYHVIWH [GCDH_Y398_R402W],7.06,0.649,0.837,2.07,1.09,1.46,0.391,1.34,1,0.818,1.17,1.1,4.61,0.789,0.568,0.521
GKFHMYVAVWT [F13A1_Y161_R159H],0.516,0.445,0.407,1.18,0.368,0.491,0.351,1.06,0.498,1.45,1.1,0.479,0.669,1.03,0.535,0.825
GKFRMYVAVWT [F13A1_Y161],0.479,0.501,0.377,1.14,0.342,0.508,0.357,1.13,0.365,0.762,1.1,0.604,0.665,0.997,0.5,0.619
GLGVTYEQALA [MAP2_Y996],0.437,0.423,0.464,0.712,0.503,0.48,0.372,0.724,0.439,1.18,0.686,0.471,0.477,0.784,0.572,0.495
GLSDLYVKIHL [SYT2_Y309_P308L],0.452,0.705,0.623,1.26,0.495,0.826,0.428,1.38,0.613,0.94,1.45,0.615,0.804,1.04,0.567,0.599
GNEEAYGSSHI [FAM171B_Y522_R524S],0.48,0.4,0.521,0.763,0.549,0.465,0.526,0.718,0.489,0.866,0.817,0.525,0.518,0.663,0.435,0.751
GNLQENLTRHV [TGFBR2_Y336_Y336N],0.358,0.366,0.427,0.461,0.337,0.478,0.368,0.447,0.374,0.432,0.558,0.422,0.418,0.698,0.474,0.601
